According to patent US20230329245A1, “COMPOSITIONS AND METHODS OF USE THEREOF” (Curie Co. Inc., priority 2020, published 2023):
“And” between values parts separate entries of the source, which are not always exact repeats. Identical values can stand only once.

Experiments:
Type in all cases: cell-based
[1] = tested on: C. parapsilosis ATCC 22019; test: MIC determination, C. parapsilosis; details: duplicate, listed as Tgase variant (SEQ ID NO: 6)
[2] = tested on: A. brasiliensis ATCC 16404; test: Minimum fungicidal concentration (MFC), A. brasiliensis; details: no colonies recovered on SDA, duplicate
Procedure: (§1) Minimum fungicidal concentration (MFC) was determined by plating 10 microliters of liquid from each MFC test solution on the appropriate agar media for each test strain. The liquid was allowed to air dry in a biosafety cabinet, then the agar plates were incubated under the appropriate conditions: A. brasiliensis and C. albicans were grown on Sabouraud Dextrose Agar (SDA) plates. A. brasiliensis was grown at 25° C. for 5 to 7 days, while C. albicans was grown at 37° C. for 24 to 48 hours. Colony formation was then assessed. MFC is defined as the lowest concentration of the Tgase (SEQ ID NO:6) in which no colonies were recovered.

B. subtilis BGSC 1A1276 [3] = test: MIC determination, B. subtilis; details: duplicate, listed as Tgase variant (SEQ ID NO: 6)
Procedure: A variant form of Streptomyces mobaraensis transglutaminase having the amino acid sequence depicted in SEQ ID NO:6 was prepared by literature methods with a hexa-his-tag to aid in purification (Javitt, et al. (2017) BMC Biotechnol. 17:23). The cells were grown in shake flasks, lysed by homogenization, and the Tgase variant (SEQ ID NO:6) was isolated from the cell debris by centrifugation. The resulting semi-purified enzyme (clarified lysate) were compared on an SDS-PAGE gel, by spectroscopy, and activity for concentration of active enzyme. The Tgase variant (SEQ ID NO:6) was further purified by affinity column on a Ni-IMAC resin prior to MIC assay. Tgase activity was measured in the examples herein using a colorimetric hydroxamate activity assay (Folk and Cole (1965) J Biol Chemistry 240(7):2951-2960). The enzyme was diluted to a working stock concentration of 2 mg/mL in CAMHB or RPMI media (bacterial or fungal media). This was then 2-fold serial diluted ten times in the appropriate media in a 96-well master plate to generate 2× starting concentrations for MIC testing.
Strains were acquired from the American Type Culture Collection (ATCC) (Manassas, VA) and maintained as −80° C. frozen glycerol stocks: S. aureus ATCC 6538, E. coli ATCC 8739, P. aeruginosa ATCC 9027, C. albicans ATCC 10231, and A. brasiliensis ATCC 16404. […]

B. subtilis BGSC 1A1276 [4] = test: Growth reduction of B. subtilis culture (OD600 / BacTiter-Glo)
Procedure: (§2) For MIC determination of bacterial cultures, E. coli ATCC 8739, DH5-alpha, DH10-beta, and B. subtilis BGSC 1A1276 was grown overnight (16-18 hours) in LB broth at 37° C. The following day, the cell density of the saturated cultures was calculated using OD600 and cultures were diluted to 10^4 to 10^6 CFU/mL in sterile LB media to generate the inoculum, and 90 μL of the inoculum was combined with 10 μL of serially diluted Tgase SEQ ID NO:1 at a range of 0.0001-0.01 weight percent in the presence or absence of 0.003% lysozyme (100-fold lower than the effective concentration). Growth curves were measured by OD600 on a BioTek® Synergy Plate Reader. Optionally, the following day, a cell viability assay such as BacTiter-Glo™ (Promega®) following manufacturer's protocols) could be used to assess cell viability. A decrease in OD600 or luminescence indicated a decrease in cell viability. Results are presented as a percent reduction in cell count relative to an untreated culture. All test conditions were performed in triplicate.
Yeast or bacterial starter cultures were grown as described previously. Tgase (SEQ ID NO:6) was added to each culture at 0.001-1 weight percent. The cultures were grown overnight at 30° C.-37° C. and growth curves were measured by a BioTek® Synergy Plate Reader.

C. albicans ATCC 10231 = test: Minimum fungicidal concentration (MFC), C. albicans; details: no colonies recovered on SDA, duplicate, listed as Tgase variant (SEQ ID NO: 6)
Procedure: as §1

E. coli ATCC 8739 = test: Growth inhibition of E. coli culture in LB (OD600 / BacTiter-Glo); details: E. coli ATCC 8739; 950 μg/mL
Procedure: as §2
E. coli ATCC 8739 was grown overnight in LB broth at 37° C. The following day, the cell density of the saturated cultures was calculated using OD600 and cultures were diluted to 10^4 to 10^6 CFU/mL in sterile LB media to generate the inoculum, and 90 μL of the inoculum was combined with 10 μL of serially diluted Tgase SEQ ID NO:6 at a range of 0.001-0.1 weight percent in the presence or absence of chemical preservatives at concentrations above and below the calculated MIC value. A single concentration (at the MIC) of the chemical preservative and static concentrations of Tgase SEQ ID NO:6 (400 μg/mL, 0.04% w/v) are presented in Table 8 as representative examples. Growth curves were measured by OD600 on a BioTek® Synergy Plate Reader and a cell viability assay (BacTiter-Glo™, Promega®, following manufacturer's protocols) was used to assess cell viability. A decrease in OD600 or luminescence indicated a decrease in cell viability. Results are presented as a percent reduction in cell count relative to an untreated culture. […]

B1: Tgase (SEQ ID NO: 6): variant Streptomyces mobaraensis transglutaminase (SEQ ID NO:2) with N-terminal Methionine, C-terminal peptide linker and hexa-His-Tag (protein)
chain: MDPDDRVTPPAEPLDRMPDPYRPSYGRAETVVNNYIRKWQQVYSHRDGRKQQMTEEQREWLSYGCVGVTWVNSGQYPTNRLAFASFDEDRFKNELKNGRPRSGETRAEFEGRVAKESFDEEKGFQRAREVASVMNRALENAHDESAYLDNLKKELANGNDALRNEDARSPFYSALRNTPSFKERNGGNHDPSRMKAVIYSKHFWSGQDRSSSADKRKYGDPDAFRPAPGTGLVDMSRDRNIPRSPTSPGEGFVNFDYGWFGAQTEADADKTVWTHGNHYHAPNGSLGAMHVYESKFRNWSEGYSDFDRGAYVITFIPKSWNTAPDKVKQGWPLEHHHHHH
MIC [1]: 250 µg/mL and 125 µg/mL | MFC [2]: 125 µg/mL | MIC (B. subtilis BGSC 1A1276 [3]): 80 µg/mL and 120 µg/mL | Fold improvement in enzyme efficacy (B. subtilis BGSC 1A1276 [4]; Tgase (SEQ ID NO: 1) alone = 1): 12 | Percent Growth Reduction (B. subtilis BGSC 1A1276 [4]; enzyme concentration 80 ug/mL): 99.77% | MFC (C. albicans ATCC 10231): 31.25 µg/mL and 62.5 µg/mL | growth inhibition (E. coli ATCC 8739): 85.0%
